Measured values as given in article PMC10311867 (Biotechnology for Biofuels and Bioproducts, 2023).
One block for each molecule: values may come before it.

Assays:
AmRha = target: T1, AmRha (Aspergillus mulundensis, UniProt A0A3D8R006); experiment: residual activity on pNPR, […] nm; assay type: biochemical; details: read-out: remaining enzyme activity at 5 mM
T1 construct: gene DSM5745_09107; full-length synthetic gene (2589 bp, 862 aa); native-like purification (ammonium sulphate, DEAE)
T1 sequence (A0A3D8R006 1-862): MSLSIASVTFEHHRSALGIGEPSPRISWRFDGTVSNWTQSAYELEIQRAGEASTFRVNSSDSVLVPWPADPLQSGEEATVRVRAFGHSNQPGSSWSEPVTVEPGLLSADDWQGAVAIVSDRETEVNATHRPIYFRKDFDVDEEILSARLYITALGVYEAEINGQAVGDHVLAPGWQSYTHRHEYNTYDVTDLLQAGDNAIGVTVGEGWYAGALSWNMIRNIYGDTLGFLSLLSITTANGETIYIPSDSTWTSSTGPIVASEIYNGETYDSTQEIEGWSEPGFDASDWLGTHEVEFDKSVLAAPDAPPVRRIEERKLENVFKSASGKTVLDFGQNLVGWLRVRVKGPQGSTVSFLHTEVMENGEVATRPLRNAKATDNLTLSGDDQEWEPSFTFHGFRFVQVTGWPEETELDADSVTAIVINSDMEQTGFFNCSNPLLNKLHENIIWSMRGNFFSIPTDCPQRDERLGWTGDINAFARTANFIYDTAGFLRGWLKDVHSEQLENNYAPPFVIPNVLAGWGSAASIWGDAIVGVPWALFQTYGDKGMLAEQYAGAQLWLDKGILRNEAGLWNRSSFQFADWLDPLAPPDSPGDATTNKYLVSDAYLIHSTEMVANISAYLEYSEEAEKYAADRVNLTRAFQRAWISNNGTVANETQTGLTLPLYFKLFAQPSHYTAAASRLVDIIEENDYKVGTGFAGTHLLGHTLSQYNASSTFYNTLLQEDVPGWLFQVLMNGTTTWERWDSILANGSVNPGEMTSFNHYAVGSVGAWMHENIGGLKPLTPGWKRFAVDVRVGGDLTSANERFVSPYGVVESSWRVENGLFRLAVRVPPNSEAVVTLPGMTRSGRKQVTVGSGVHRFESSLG

purified protein [1] = substrate: C[C@@H]1O[C@@H](Oc2ccc([N+](=O)[O-])cc2)[C@H](O)[C@H](O)[C@H]1O; experiment: purified protein; assay type: biochemical, Aspergillus mulundensis; details: pH 5.5, 65 °C, 50 mM sodium phosphate
purified protein [2] = substrate: COc1ccc(-c2oc3c(CC=C(C)C)c(O[C@@H]4O[C@H](CO)[C@@H](O)[C@H](O)[C@H]4O)cc(O)c3c(=O)c2O[C@@H]2O[C@@H](C)[C@H](O)[C@@H](O)[C@H]2O[C@@H]2O[C@@H](C)[C@H](O)[C@@H](O)[C@H]2O)cc1; experiment: purified protein; details: hydrolysis of terminal alpha-1,2-rhamnose to icariin; kinetic conditions not stated

remaining activity at 5000 µM (AmRha): 49.7%
Molecule: C[C@@H]1OC(O)[C@H](O)[C@H](O)[C@H]1O (stereo partly drawn) [L-rhamnose]

B1: AmRha (Aspergillus mulundensis) (protein)
chain: T1 sequence (A0A3D8R006 1-862)
notes: full-length synthetic gene (2589 bp, 862 aa); native-like purification (ammonium sulphate, DEAE)
Km (purified protein [1]): 0.30 mM | kcat (purified protein [1]): 900.34 s⁻¹ | Km (purified protein [2]): 6.96 mM | kcat (purified protein [2]): 37.11 s⁻¹
